{"source": "paper PMC2291188", "about": "(The Journal of Cell Biology, 1995)", "binders": {"B1": {"name": "27 kD 7B2 (rat) (natural protein, UniProt P27682 25-210, looked up)", "chain": "YSPRTPDRVSETDIQRLLHGVMEQLGIARPRVEYPAHQAMNLVGPQSIEGGAHEGLQHLGPFGNIPNIVAELTGDNIPKDFSEDQGYPDPPNPCPLGKTADDGCLENAPDTAEFSREFQLDQHLFDPEHDYPGLGKWNKKLLYEKMKGGQRRKRRSVNPYLQGKRLDNVVAKKSVPHFSEEEKEPE"}}, "target": "T1, proPC2 (proform of the prohormone convertase PC2) (UniProt P28841 25-637)", "T1 sequence (looked up)": "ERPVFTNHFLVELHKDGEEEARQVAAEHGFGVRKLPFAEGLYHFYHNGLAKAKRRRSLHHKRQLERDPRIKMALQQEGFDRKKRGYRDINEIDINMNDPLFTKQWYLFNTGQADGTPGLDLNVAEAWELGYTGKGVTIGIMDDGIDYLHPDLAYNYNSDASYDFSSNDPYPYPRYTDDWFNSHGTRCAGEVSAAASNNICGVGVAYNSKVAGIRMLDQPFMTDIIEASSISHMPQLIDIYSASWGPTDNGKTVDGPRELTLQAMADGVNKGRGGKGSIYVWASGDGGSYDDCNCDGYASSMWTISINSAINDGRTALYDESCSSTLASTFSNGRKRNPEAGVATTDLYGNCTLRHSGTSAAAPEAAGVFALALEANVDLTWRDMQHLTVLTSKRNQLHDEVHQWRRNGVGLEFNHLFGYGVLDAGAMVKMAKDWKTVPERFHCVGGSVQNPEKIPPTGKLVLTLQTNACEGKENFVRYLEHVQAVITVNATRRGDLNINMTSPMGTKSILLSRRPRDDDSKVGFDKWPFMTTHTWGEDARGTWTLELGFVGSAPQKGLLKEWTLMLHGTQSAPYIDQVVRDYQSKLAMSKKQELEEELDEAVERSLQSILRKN", "assay": "co-IP", "note": "Where “and” joins values, the source holds several entries; their conditions need not be identical. Equal entries are not always repeated."}
{"binder": "B1", "values": [{"measurement": "stoichiometry N", "result": "1.12 mol 7B2 per mol PC2 (molar ratio, Clone#1) and 1.09 mol 7B2 per mol PC2 (molar ratio, Clone#2)"}]}
